For experiment [1], the target named is CD20 on human Raji B cells (human) (UniProt P11836). The experiment is described as follows: flow cytometry on Raji cells, anti-human IgG-PE detection. (A flow cytometer gives signals particle by particle.)
In experiment [2] the target is T1, CD20 on human Raji B cells (human, UniProt P11836 1-297).
T1 construct: whole, on cells; The target is presented on Raji cells; also called CD20+ human B lymphoma (Raji) cells; CD-20+ human Raji B cells
T1 sequence (looked up): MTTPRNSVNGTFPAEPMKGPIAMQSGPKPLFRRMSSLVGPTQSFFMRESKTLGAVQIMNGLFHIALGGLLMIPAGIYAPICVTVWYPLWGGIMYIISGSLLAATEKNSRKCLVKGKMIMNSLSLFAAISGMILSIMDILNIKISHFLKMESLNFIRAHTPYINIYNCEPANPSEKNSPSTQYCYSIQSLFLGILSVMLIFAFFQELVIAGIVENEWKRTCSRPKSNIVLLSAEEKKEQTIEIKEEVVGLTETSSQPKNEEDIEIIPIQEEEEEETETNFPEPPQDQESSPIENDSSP
Described as above.

Consider “Rituximab present in mouse serum after injection of a dual cassette, single plasmid Rituximab DNA vector (antibody)”, for which, in experiment [1], the Mean Fluorescence Intensity was 3530 and the fluorescence intensity, fold over background is above 10 fold.

B1: recombinant Rituximab protein (antibody, V domains shown)
VH: QVQLQQPGAELVKPGASVKMSCKASGYTFTSYNMHWVKQTPGRGLEWIGAIYPGNGDTSYNQKFKGKATLTADKSSSTAYMQLSSLTSEDSAVYYCARSTYYGGDWYFNVWGAGTTVTVSA
VL: QIVLSQSPAILSASPGEKVTMTCRASSSVSYIHWFQQKPGSSPKPWIYATSNLASGVPVRFSGSGSGTSYSLTISRVEAEDAATYYCQQWTSNPPTFGGGTKLEIK
As to B1, in experiment [2], the “fluorescence intensity, fold over background” value is above 10 fold.
